Results as given in publication doi:10.1101/2020.10.07.330233v1.

B1: β-glucosidase B (BglB) (Paenibacillus polymyxa) (protein)
chain: MSENTFIFPATFMWGTSTSSYQIEGGTDEGGRTPSIWDTFCQIPGKVIGGDCGDVACDHFHHFKEDVQLMKQLGFLHYRFSVAWPRIMPAAGIINEEGLLFYEHLLDEIELAGLIPMLTLYHWDLPQWIEDEGGWTQRETIQHFKTYASVIMDRFGERINWWNTINEPYCASILGYGTGEHAPGHENWREAFTAAHHILMCHGIASNLHKEKGLTGKIGITLNMEHVDAASERPEDVAAAIRRDGFINRWFAEPLFNGKYPEDMVEWYGTYLNGLDFVQPGDMELIQQPGDFLGINYYTRSIIRSTNDASLLQVEQVHMEEPVTDMGWEIHPESFYKLLTRIEKDFSKGLPILITENGAAMRDELVNGQIEDTGRHGYIEEHLKACHRFIEEGGQLKGYFVWSFLDNFEWAWGYSKRFGIVHINYETQERTPKQSALWFKQMMAKNGF
B2: β-glucosidase B (BglB) (Paenibacillus polymyxa; I23A) (protein)
chain: MSENTFIFPATFMWGTSTSSYQAEGGTDEGGRTPSIWDTFCQIPGKVIGGDCGDVACDHFHHFKEDVQLMKQLGFLHYRFSVAWPRIMPAAGIINEEGLLFYEHLLDEIELAGLIPMLTLYHWDLPQWIEDEGGWTQRETIQHFKTYASVIMDRFGERINWWNTINEPYCASILGYGTGEHAPGHENWREAFTAAHHILMCHGIASNLHKEKGLTGKIGITLNMEHVDAASERPEDVAAAIRRDGFINRWFAEPLFNGKYPEDMVEWYGTYLNGLDFVQPGDMELIQQPGDFLGINYYTRSIIRSTNDASLLQVEQVHMEEPVTDMGWEIHPESFYKLLTRIEKDFSKGLPILITENGAAMRDELVNGQIEDTGRHGYIEEHLKACHRFIEEGGQLKGYFVWSFLDNFEWAWGYSKRFGIVHINYETQERTPKQSALWFKQMMAKNGF
B3: β-glucosidase B (BglB) (Paenibacillus polymyxa; I48K) (protein)
chain: MSENTFIFPATFMWGTSTSSYQIEGGTDEGGRTPSIWDTFCQIPGKVKGGDCGDVACDHFHHFKEDVQLMKQLGFLHYRFSVAWPRIMPAAGIINEEGLLFYEHLLDEIELAGLIPMLTLYHWDLPQWIEDEGGWTQRETIQHFKTYASVIMDRFGERINWWNTINEPYCASILGYGTGEHAPGHENWREAFTAAHHILMCHGIASNLHKEKGLTGKIGITLNMEHVDAASERPEDVAAAIRRDGFINRWFAEPLFNGKYPEDMVEWYGTYLNGLDFVQPGDMELIQQPGDFLGINYYTRSIIRSTNDASLLQVEQVHMEEPVTDMGWEIHPESFYKLLTRIEKDFSKGLPILITENGAAMRDELVNGQIEDTGRHGYIEEHLKACHRFIEEGGQLKGYFVWSFLDNFEWAWGYSKRFGIVHINYETQERTPKQSALWFKQMMAKNGF
B4: β-glucosidase B (BglB) (Paenibacillus polymyxa; A360S) (protein)
chain: MSENTFIFPATFMWGTSTSSYQIEGGTDEGGRTPSIWDTFCQIPGKVIGGDCGDVACDHFHHFKEDVQLMKQLGFLHYRFSVAWPRIMPAAGIINEEGLLFYEHLLDEIELAGLIPMLTLYHWDLPQWIEDEGGWTQRETIQHFKTYASVIMDRFGERINWWNTINEPYCASILGYGTGEHAPGHENWREAFTAAHHILMCHGIASNLHKEKGLTGKIGITLNMEHVDAASERPEDVAAAIRRDGFINRWFAEPLFNGKYPEDMVEWYGTYLNGLDFVQPGDMELIQQPGDFLGINYYTRSIIRSTNDASLLQVEQVHMEEPVTDMGWEIHPESFYKLLTRIEKDFSKGLPILITENGASMRDELVNGQIEDTGRHGYIEEHLKACHRFIEEGGQLKGYFVWSFLDNFEWAWGYSKRFGIVHINYETQERTPKQSALWFKQMMAKNGF
B5: β-glucosidase B (BglB) (Paenibacillus polymyxa; I23V) (protein)
chain: MSENTFIFPATFMWGTSTSSYQVEGGTDEGGRTPSIWDTFCQIPGKVIGGDCGDVACDHFHHFKEDVQLMKQLGFLHYRFSVAWPRIMPAAGIINEEGLLFYEHLLDEIELAGLIPMLTLYHWDLPQWIEDEGGWTQRETIQHFKTYASVIMDRFGERINWWNTINEPYCASILGYGTGEHAPGHENWREAFTAAHHILMCHGIASNLHKEKGLTGKIGITLNMEHVDAASERPEDVAAAIRRDGFINRWFAEPLFNGKYPEDMVEWYGTYLNGLDFVQPGDMELIQQPGDFLGINYYTRSIIRSTNDASLLQVEQVHMEEPVTDMGWEIHPESFYKLLTRIEKDFSKGLPILITENGAAMRDELVNGQIEDTGRHGYIEEHLKACHRFIEEGGQLKGYFVWSFLDNFEWAWGYSKRFGIVHINYETQERTPKQSALWFKQMMAKNGF

Substrate: O=[N+]([O-])c1ccc(O[C@@H]2O[C@H](CO)[C@@H](O)[C@H](O)[C@H]2O)cc1
Assay: purified protein
Settings: 1 hour assay
[1] = average of two wild-type replicates (WT-1, WT-2)

| Protein | Km [1] [mM] | kcat [1] [s⁻¹] | Km (technical triplicate) [mM] | kcat (technical triplicate) [s⁻¹] |
| --- | --- | --- | --- | --- |
| B1 | 9.8 ± 2.2 | 10.37 ± 0.763 | – | – |
| B2 | – | – | 17.1 ± 1.1 | 1.54 ± 0.035 |
| B3 | – | – | 4.2 ± 0.1 | 4.998 ± 0.04 |
| B4 | – | – | 12.7 ± 1.4 | 1.55 ± 0.0533 |
| B5 | – | – | 12.7 ± 0.53 | 9.4 ± 0.125 |
